Data: patent US20220387487A1, “COMPOSITIONS AND METHODS FOR TREATMENT OF CANCER” (Aleta Biotherapeutics Inc., priority 2019, published 2022)

Target: T1, CLEC12A K form (Homo sapiens, UniProt Q5QGZ9)
T1 construct: transfected with full-length CLEC12A (UniProt Q5QGZ9-1) cDNAs; host or cells: HEK-293T
T1 sequence (Q5QGZ9 1-275 isoform Q5QGZ9-1): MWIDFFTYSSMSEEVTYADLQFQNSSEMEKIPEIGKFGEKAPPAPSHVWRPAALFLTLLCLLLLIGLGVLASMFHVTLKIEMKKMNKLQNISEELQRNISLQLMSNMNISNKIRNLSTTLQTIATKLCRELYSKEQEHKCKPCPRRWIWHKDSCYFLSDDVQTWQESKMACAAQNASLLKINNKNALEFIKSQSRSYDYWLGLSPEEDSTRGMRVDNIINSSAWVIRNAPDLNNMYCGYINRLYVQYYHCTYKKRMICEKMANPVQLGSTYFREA
Assay: Flow cytometry binding to HEK-293T cells transfected with CLEC12A amino acid 254 K version
Settings: FIG. 19
Description: Given the unique binding properties of VHH clone 2H3 relative to the anti-CLEC12A scFv we tested the binding properties of a biparatopic fusion protein containing both the VHH clone 2H3 and an anti-CLEC12A scFv. HEK-293T cells were transfected with full-length CLEC12A (UniProt Q5QGZ9-1) cDNAs expressing the amino acid 254 “K” version of CLEC12A (GenScript) or a version with “Q” at this position generated by mutagenesis. The cells were removed with Accutase and washed with PBS, suspended in 50 μL FACS buffer (FB, PBS+1% BSA and 0.1% sodium azide) and blocked with human Fc block (Becton Dickinson) at room temperature for 10 minutes. Then, 50 μl of the purified fusion proteins #186, #330 or #357 diluted in FACS buffer (starting at 3 μg/ml with 3 fold dilutions) were added. The cell/fusion protein mixture was incubated for 30 minutes at 4° C. and then washed twice with FACS buffer. The cells were suspended in 100 μl of FACS buffer, stained with HIB19-PE (BioLegend […]), and incubated for 30 minutes at 4° C. The cells were washed twice with FACS buffer, fixed with a final concentration of 1% PFA in PBS (Thermo Scientific) and then analyzed by flow cytometry.

B1: #330: fusion protein comprised of a CD19 variant and an anti-CLL-1 VHH (2H3); SEQ ID NO:305 (protein)
chain: MEFGLSWVFLVALFRGVQCQVQLQESGGGLVQAGGSLRLSCVASGSIRSINVMGWYRQAPGKQRELVAACASDGNTYYADSVKGRFTISRDNAEKTVYLQMNNLKPDDTAVYYCDANSRGNYYSGQGTQVTVSSTSGPGGQGAGGGGSGGGGSGGGGSGGGGSPEEPLVVKVEEGDTAALWCLKGTSDGPTQQLTWSRESPLKPFLKYSLGVPGLGVHVRPDAISVVIRNVSQQMGGFYLCQPGPPSEKAWQPGWTVNVEGSGELFRWNVSDLGGLGCGLKNRSSEGPSSPSGKLMSPKLYVWAKDRPEIWEGEPPCLPPRDSLNQSLSRDLTVAPGSTLWLSCGVPPDSVSRGPLSWTHVHPKGPKSLLSLELKDDRPARDMWVMGTSLMLPRATAQDAGKWYCHRGNLTMSFHLEITARPSRHHHHHH
binding to the K form of CLEC12A: very weakly | binding to the K form weaker than to the Q form: greater than 10,000 fold
